Measurements taken from paper PMC9720079, “Identification and Characterization of a Bacteriocin from the Newly Isolated Bacillus subtilis HD15 with Inhibitory Effects against Bacillus cereus” (Journal of Microbiology and Biotechnology, 2022).
Ends that are not written are not given here.

Assays:
lipase (E.C. 3.1.1.3) = assay: Effect of enzyme treatment on antimicrobial activity; assay type: in vitro ADME; conditions: 30 min
Description: (§1) To evaluate the pH stability of the antimicrobial substance, the buffers were prepared with 0.1 M glycine-HCl buffer (pH between 2 and 4), 0.1 M sodium acetate buffer (pH between 4 and 6), 0.1 M sodium phosphate buffer (pH between 6 and 8), and 0.1 M Tris-HCl buffer (pH between 8 and 10). The antimicrobial substance was mixed with buffer at a ratio of 1:15 and incubated at 37°C for 12 h, and relative antimicrobial activity was measured. To evaluate temperature stability, purified bacteriocin was incubated at 0°C, 20°C, 40°C, 60°C, 70°C, 80°C, or 90°C for 12 h, and at 100°C for 1 h. Relative antimicrobial activity was assessed using the agar well diffusion method, and the zone of inhibition was measured in millimeters. To assess the effect of various enzymes on antimicrobial activity, lysozyme (E.C. 3.2.1.17), α-amylase (E.C. 3.2.1.1), lipase (E.C. 3.1.1.3), protease (E.C. 3.4.24.31), and proteinase K (E.C. 3.4.21.64) (all from Sigma-Aldrich) and pronase E (E.C. 3.4.24.4; Merck Millipore, USA) were prepared in sodium phosphate buffer (pH 7.0) at a final concentration of 4 mg/ml. Purified bacteriocin was mixed with each enzyme at 2 mg/ml and incubated at 37°C for 30 min, and the relative antimicrobial activity was measured.

[1] = target: T1, proteinase K (E.C. 3.4.21.64) (Parengyodontium album, UniProt P06873); assay: as above; assay type: in vitro ADME; conditions: 30 min; for effect of proteinase K treatment on antimicrobial activity: 2 mg/ml, pH 7.0, 37°C
T1 construct: purchased Sigma-Aldrich
T1 sequence (P06873 106-384): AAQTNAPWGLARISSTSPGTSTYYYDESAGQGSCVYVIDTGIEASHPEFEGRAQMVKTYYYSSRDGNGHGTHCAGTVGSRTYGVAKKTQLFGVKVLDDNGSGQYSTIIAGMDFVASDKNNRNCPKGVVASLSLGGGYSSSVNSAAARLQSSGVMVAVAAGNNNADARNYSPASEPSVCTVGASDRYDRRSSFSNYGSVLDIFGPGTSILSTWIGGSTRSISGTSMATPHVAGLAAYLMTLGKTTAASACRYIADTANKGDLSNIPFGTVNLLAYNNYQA
Description: as §1

α-amylase (E.C. 3.2.1.1) = assay: as above; assay type: in vitro ADME; conditions: 2 mg/ml, pH 7.0, 37°C, 30 min
Description: as §1

B. cereus = assay: Antimicrobial activity in arbitrary units, serial 2-fold dilutions, of purification steps; assay type: cell-based, Bacillus cereus
Description: The protein content in the bacteriocin solution was measured using the modified Lowry method. A 50 μl volume of bacteriocin was mixed with 550 μl of biuret reagent (0.75 mM cupric sulfate and 94 mM sodium hydroxide) and incubated for 10 min at 25°C. A 25 μl volume of Folin–Ciocalteu’s phenol reagent (Sigma-Aldrich, USA) was then added, followed by incubation for 30 min at 25°C. Absorbance was measured at 725 nm using a VersaMax ELISA Microplate Reader (Molecular Devices, USA), and a standard curve was constructed using bovine serum albumin (Sigma-Aldrich). Antimicrobial activity was measured as arbitrary units per milliliter of purified microbial culture using serial 2-fold dilutions of the antimicrobial substance. […] AU/mL was calculated by multiplying AU by the dilution factor.

[2] = tested on: Listeria monocytogenes ATCC 15313; assay: Inhibitory spectrum, well diffusion method; assay type: cell-based; conditions: for antimicrobial activity against L. monocytogenes: well diffusion method
Description: (§2) Antimicrobial activity against several gram-positive and gram-negative bacteria was assessed using the agar well diffusion method, with some modifications. Cultures were incubated in tryptic soy medium at 37°C for 60 h. Cell-free supernatants were prepared by centrifugation (3,800 ×g, 4°C, 30 min) and used as an antagonistic substance. Each pathogen at 7.0 log CFU/ml was spread on a TSA plate. An 8-mm-diameter well was created using a cork borer on the agar plate, and 50 μl of the cell-free supernatant was added to the wells. The plates were left undisturbed for a few hours to allow the supernatant to diffuse into the agar and then cultured at 37°C for 18 h. The diameter of the resultant growth inhibition zone was measured as a measure of antimicrobial activity.

[3] = tested on: Bacillus cereus KCCM 40152; assay: Inhibitory spectrum, well diffusion method; assay type: cell-based; conditions: for antimicrobial activity against B. cereus: well diffusion method
Description: as §2

[4] = tested on: Staphylococcus aureus ATCC 25923; assay: Inhibitory spectrum, well diffusion method; assay type: cell-based; parameters: key to Antibacterial activity: +++: Greater than 15 mm; −: no inhibition zone
Description: as §2

[5] = tested on: Salmonella enteritidis CCARM 8206; assay: Inhibitory spectrum, well diffusion method; assay type: cell-based; parameters: key: +++: Greater than 15 mm; −: no inhibition zone; conditions: inhibition zone class
Description: as §2

[6] = tested on: Escherichia coli O157:H7 ATCC 43894; assay: Inhibitory spectrum, well diffusion method; assay type: cell-based; parameters: key: +++: Greater than 15 mm; −: no inhibition zone; conditions: inhibition zone class
Description: as §2

[7] = tested on: Shigella flexneri KCCM 11937; assay: Inhibitory spectrum, well diffusion method; assay type: cell-based; parameters: key: +++: Greater than 15 mm; −: no inhibition zone; conditions: inhibition zone class
Description: as §2

[8] = tested on: Shigella sonnei KCCM 41282; assay: Inhibitory spectrum, well diffusion method; assay type: cell-based; parameters: key: +++: Greater than 15 mm; −: no inhibition zone; conditions: inhibition zone class
Description: as §2

[9] = tested on: Vibrio parahaemolyticus KCCM 11965; assay: Inhibitory spectrum, well diffusion method; assay type: cell-based; parameters: key: +++: Greater than 15 mm; −: no inhibition zone; conditions: inhibition zone class
Description: as §2

[10] = tested on: Salmonella choleraesuis KCCM 40736; assay: Inhibitory spectrum, well diffusion method; assay type: cell-based; parameters: key: +++: Greater than 15 mm; −: no inhibition zone; conditions: inhibition zone class
Description: as §2

[11] = tested on: Vibrio vulnificus ATCC 29306; assay: Inhibitory spectrum, well diffusion method; assay type: cell-based; parameters: key: +++: Greater than 15 mm; −: no inhibition zone; conditions: inhibition zone class
Description: as §2

[12] = tested on: Cronobacter sakazakii KCTC2949; assay: Inhibitory spectrum, well diffusion method; assay type: cell-based; parameters: key: +++: Greater than 15 mm; −: no inhibition zone; conditions: inhibition zone class
Description: as §2

[13] = tested on: Pseudomonas aeruginosa KCCM 12539; assay: Inhibitory spectrum, well diffusion method; assay type: cell-based; parameters: key: +++: Greater than 15 mm; −: no inhibition zone; conditions: inhibition zone class
Description: as §2

gram-negative bacteria = assay: Inhibitory spectrum, well diffusion method, gram-negative bacteria as a group; assay type: cell-based
Description: as §2

[14] = pH stability of bacteriocin, relative antimicrobial activity; assay type: physicochemical; conditions: 12 h; for Relative activity (%): substance:buffer 1:15, 37°C, read-out agar well diffusion
Description: as §1

[15] = Temperature stability of bacteriocin, relative antimicrobial activity; assay type: physicochemical; conditions: for temperature range of stable activity: 12 h incubation; for Relative activity (%): 12 h, read-out agar well diffusion
Description: as §1

[16] = tested on: Bacillus cereus KCCM 12667; assay: Agar well diffusion test of purified bacteriocin; assay type: cell-based; conditions: Fig. 3C
Description: as §2
The molecular weight of bacteriocin was determined by tricine sodium dodecyl sulfate-polyacrylamide gel electrophoresis (SDS-PAGE; Bio-Rad, USA) at 100 V for 5 h on a 20% polyacrylamide gel with an ultra-low-range molecular weight marker (1,060–26,600 Da; Sigma-Aldrich), followed by silver staining (Amersham Biosciences, Sweden). Direct detection was then performed to determine whether the protein bands corresponded to bacteriocin [23].

[17] = listed as purified protein from B. subtilis HD15
[18] = listed as B. subtilis HD15 bacteriocin
[19] = well diffusion, inhibition zone class

With “SIGACLVDGPIPVIEG [bacteriocin from Bacillus subtilis HD15, 3.6 kDa bacteriocin related to subtilosin A, purified from B. subtilis HD15 culture by ammonium sulfate, DEAE-Sepharose and Sephacryl steps]” the “effect of lipase treatment on antibacterial activity” value (lipase (E.C. 3.1.1.3); 2 mg/ml, pH 7.0, 37°C) was “no effect”, the “Relative activity (%)” value (lipase (E.C. 3.1.1.3); lipase 2 mg/ml, sodium phosphate buffer pH 7.0, 37°C, read-out relative antimicrobial activity) was 100% and the “effect of proteinase K treatment on antimicrobial activity” value [1] was “lost”. The “effect of proteinase K treatment on antimicrobial activity” value [1, 17] was “completely inhibited”, the “Relative activity (%)” value ([1]; proteinase K 2 mg/ml, sodium phosphate buffer pH 7.0, 37°C, read-out relative antimicrobial activity) was 0% and the “effect of amylase treatment on antibacterial activity” value (α-amylase (E.C. 3.2.1.1)) was “no effect”. The “Total activity (AU)” value (B. cereus; purification step from 500 ml culture, reciprocal of maximum 2-fold dilution giving a transparent zone, indicator strain not given) was 10,500 AU, the “Specific activity (AU/mg)” value (B. cereus; total activity per total protein (modified Lowry) of purification step) was 413.4 AU/mg and the “antimicrobial activity against L. monocytogenes” value [2, 18] was “strong inhibition”. The “antimicrobial activity against L. monocytogenes” value [2, 17] was “high antimicrobial activity”, the Antibacterial activity [2, 19] was “+++ (Greater than 15 mm)” and the “antimicrobial activity against B. cereus” value [3, 18] was “strong inhibition”. The “antimicrobial activity against B. cereus” value [3, 17] was “high antimicrobial activity”, the Antibacterial activity [3, 19] was “+++ (Greater than 15 mm)” and the “antimicrobial activity against Staphylococcus aureus” value ([4]; well diffusion method) was “no activity”. For the same sequence, the Antibacterial activity [4, 19] was “−”, the Antibacterial activity [5] was “−” and the Antibacterial activity [6] was “−”. For the same sequence, the Antibacterial activity [7] was “−”, the Antibacterial activity [8] was “−” and the Antibacterial activity [9] was “−”. The Antibacterial activity [10] was “−”, the Antibacterial activity [11] was “−” and the Antibacterial activity [12] was “−”. The Antibacterial activity [13] was “−”, the “antimicrobial activity against gram-negative bacteria” value (gram-negative bacteria) was “no activity” and the “Relative activity (%)” value ([14]; pH 2, 0.1 M glycine-HCl buffer) was 50%. The “Relative activity (%)” value ([14]; pH 3, 0.1 M glycine-HCl buffer) was 80%, the antimicrobial activity remaining ([14]; pH 3 to 9 as worded in text, 37°C) was 80% and the “Relative activity (%)” value ([14]; pH 4, 0.1 M glycine-HCl or sodium acetate buffer) was 95%. The “Relative activity (%)” value ([14]; pH 5, 0.1 M sodium acetate buffer) was 100%, the antimicrobial activity maintained ([14]; pH 5–7, 37°C) was 100% and the “Relative activity (%)” value ([14]; pH 6, 0.1 M sodium acetate or sodium phosphate buffer) was 100%. The “Relative activity (%)” value ([14]; pH 7, 0.1 M sodium phosphate buffer) was 100%, the “Relative activity (%)” value ([14]; pH 8, 0.1 M sodium phosphate or Tris-HCl buffer) was 95% and the “Relative activity (%)” value ([14]; pH 9, 0.1 M Tris-HCl buffer) was 80%. The “Relative activity (%)” value ([14]; pH 10, 0.1 M Tris-HCl buffer) was 30%, the “antimicrobial activity after incubation” value ([15]; 0–50°C for 12 h) was 100% and the “temperature range of stable activity” value [15] was “up to 70 °C”. The “temperature range of stable activity” value [15, 17] was 0–70 °C, the activity remaining ([15]; after 12 h at 70°C and over a pH range between 3 and 9) was “more than 70%” and the “Relative activity (%)” value ([15]; heat 50°C) was 100%. For the same sequence, the “Relative activity (%)” value ([15]; heat 60°C) was 95%, the “Relative activity (%)” value ([15]; heat 70°C) was 70% and the “Relative activity (%)” value ([15]; heat 80°C) was 20%. For the same sequence, the “Relative activity (%)” value ([15]; heat 90°C) was 0% and the “Antibacterial activity, zone around purified bacteriocin” value [16] was “clear zone”.
